Reference: patent publication US20110171312A1, “MODIFIED THERAPEUTIC PEPTIDES, METHODS OF THEIR PREPARATION AND USE” (Nektar Therapeutics, priority 2008, published 2011)
Where two headings read alike, the source gives them in different places.

Assays:
[1] = Quick release test of releasable PEG-insulin conjugate; assay type: physicochemical; settings: 100 mM HEPES, pH 8.66, 50° C., approximately 24 hours; gel electrophoresis
Description: The pH was adjusted to 8.66 with 11.0 μL 2 M NaOH. Incubated solution at 50° C. for approximately 24 hours. […] This is slightly lower than the theoretical content of 22.5%. […] Peptide mapping was performed to determine which residue on insulin was modified. […] The purity of the conjugate was 91% mono-conjugate as determined by reverse phase HPLC.

[2] = test system: beagle dogs; settings: glucose clamp, powder inhalation (FIG. 13a)
Description: The glucose clamp technique involved the continuous infusion of a 50% glucose solution at a rate such that normal serum glucose values were maintained throughout the experiment (e.g., normal range is 80-100 mg/dl).
Glucagon was also infused to maintain normal serum physiologic concentrations. […] Blood was withdrawn from an indwelling catheter over a 10-hour period.

[3] = test system: beagle dogs; experiment: PK/PD after IV dosing in dogs (Example 26); settings: for CMAX: baseline corrected
Description: (§1) The compounds were prepared in accordance with Examples 16 and 18.
(§2) 6 Beagle dogs (˜7-10 kg) were anesthetized in both the IV and IH arms of this study for consistency. Dogs were then given 0.1 mg/kg acepromazine subcutaneously ˜15 minutes prior to 1-5% isoflurane mask induction. Once the appropriate plane of anesthesia was achieved, the pre-shaved neck of the dog was installed with an 18-20 G Abbocath intravenous catheter in the right or left jugular vein and pre-dose sampling was taken. This catheter was used for all blood samplings other than the later time points (16, 20 and 24 hour). Subsequent samples were taken from the cephalic veins.
The test and control articles were administered by bolus intravenous (IV) injection of a volume of 300 μl into the left cephalic vein using a 22 G 1 inch 1 mL tuberculin syringe.
(§3) Whole blood was used for the glucose measurements. EDTA-anticoagulated plasma was used for compound quantitation assays.
(§4) Quantitation of test and control articles for PK analysis was made with a radio-immuno assay (RIA) conducted at Linco Research, St-Charles, Mo. […] This antiserum was used as the basis of an RIA assay which was then qualified with respect to accuracy, precision, sensitivity, and dilutional linearity. The working range of this assay was 0.15-5 ng/ml. Samples exceeding the upper boundary of this range were diluted in a pool of charcoal-stripped canine plasma.

[4] = test system: beagle dogs; experiment: PK/PD after IH (powder inhalation) dosing in dogs (Example 26); settings: for Effect/mg Dosed: AUEC per mg of IH lung dose; for Effect (Glucose Suppression AUEC): lung dose 0.34, 0.6, 2 mg
Description: as §1, §2
The formulated control and test articles were delivered by inhalation (IH) via an endotracheal (ET) tube. Ventilator stroke volume was set empirically for each dog to achieve a Peak Mouth Pressure (PMP) of 20-25 cm H2O. A digital manometer (Dwyer Instruments, Michigan City, Ind.) was connected to the ET tube/“Y” connector to monitor PMP. Each blister pack (BP) was delivered with 2 full breathing cycles. No more than 3 BPs were administered during one apneic period. If required to achieve the target administered dose, a second apneic period was induced after an interval of 2 minutes of spontaneous breathing.
Total administered powder as well as estimated inhaled total lung dose were reported.
as §3, §4
To calculate the overall glucose suppression, glucose levels were normalized by the equation:
GlucoseSuppression(t)=PredoseGlucoseConcentration−Glucose(t)
The glucose suppression-time profiles were integrated using linear-trapezoidal rule to calculate the area under the effect curve (AUEC).

[5] = 100 mM acetic acid
[6] = test system: Sprague-Dawley rats; experiment: Dose determination and PK/PD after intratracheal instillation (Example 25); assay type: in vivo, rat; settings: intratracheal
Description: A spectrometric measurement of compound concentration was also made.
Intratracheal Instillation (IT) was conducted as follows.
Sample Collection was performed as follows.
The glucose monitoring was conducted as follows.
The experimental protocol was modified for the analysis of the acetylated compounds. This resulted from the intent to use LC/MS-MS for the quantitation of compound concentrations in plasma. This analytical technique requires a larger volume of plasma to permit concentration of the sample and achieve the requisite increase in sensitivity. […] The protocol was therefore modified to increase the number of animals by two-fold and split the samples between these two cohorts.
To explore the data further, the PK profiles after IT doses were deconvoluted using IV PK parameters using the Wagner Nelson deconvolution procedure, to generate the cumulative absorption profile (FIG. 32).

[7] = test system: Sprague-Dawley rats; settings: rats, intravenous
Description: The first phase established a dose of the compound required to achieve a target blood glucose reduction. This target blood glucose reduction was chosen to be the minimum reduction that is clearly recognizable as different from the resting blood glucose concentration.
The second phase examined the pharmacokinetics/pharmacodynamics of the molecule when administered to rats at the selected dose over an observation time sufficient for the glucose to return to baseline.
These experiments were conducted on male adult Sprague-Dawley rats of approximately 0.30-0.40 kg. Animals were obtained pre-cannulated with a jugular vein catheter (JVC) for blood sampling and, in the case of IV administration, and additional femoral vein catheter (FVC).
Intravenous administration of compounds was made via a femoral catheter in a volume of 300 μl.
Sample Collection was performed as follows. Blood samples of approximately 0.50 mL were collected from the JVC using a 1 mL syringe at each time point. A new syringe was used for each time point along with precautions to prevent contamination and carry-over.
The glucose monitoring was conducted as follows. Approximately 20 μL of whole blood was touched to the end of the glucose test strip of 2 Glucometer Elite glucose monitors for a duplicate determination of blood glucose concentrations. If there was a discrepancy of greater than 5 mg/dl, a third reading was taken.
The sample for compound quantitation in plasma, which served as basis for the PK analysis, was collected and processed as follows. The volume of blood remaining after the glucose measurement (˜480 μL) was anticoagulated with K2 EDTA and centrifuged to recover plasma. The plasma was collected and stored at −80° C. until analysis.

[8] = 14.3/(14.3 + 0.2) * 100%
Description: Concentrations of collected samples were determined using UV spectroscopy, while the integrity analysis of the collected protein was evaluated by HPLC.

[9] = dogs, IV, insulin 0.027, 2K 0.058, 5K 0.084 mg/dog, mean
[10] = dog, in vivo, inhaled or intranasal

G2-PEG2-FMOC-NHS 40K insulin: Example 21: releasable mono-conjugate of insulin with G2-PEG2-FMOC-NHS 40K, site specific (B1)
release of insulin from the PEG [1]: Complete release

Insulin: unmodified human insulin used as control and starting material [reference compound]
duration for which glucose infusion was necessary [2]: 300 min
AUC0-LAST [3, 9]: 1.822 ng·h/mL
CMAX [3, 9]: 9.1 ng/mL
CMAX ([3]; dogs, IV, insulin 0.027, 2K 0.058, 5K 0.084 mg/dog, mean, listed as INSULIN): 9.117 ng/mL
time of last quantifiable sample ([4]; dogs, IH, 0.34 mg/dog): 2 h
Effect/mg Dosed ([4]; dogs, IH): 156
Effect (Glucose Suppression AUEC) ([4]; dogs, IH): 53
AUC0-LAST ([4]; dogs, IH, lung dose insulin 0.34, 2K 0.60, 5K 2.0 mg/dog, mean): 1.538 ng·h/mL
CMAX ([4]; dogs, IH, lung dose insulin 0.34, 2K 0.60, 5K 2.0 mg/dog, mean, baseline corrected): 1.567 ng/mL
calculated IH bioavailability ([4]; dogs, powder after the ET tube, relative to IV): about 6%
solubility ([5]; pH 4): ~5000 µg/mL
solubility ([5]; pH 4, listed as insulin): up to 5 mg/ml
solubility ([5]; pH 5): less than 1 mg/ml

di-N^αA1,N^εB29-(acetyl)-N^αB1-{3-[methoxy(ethoxy)5K]propionyl}insulin [PEG5000-B1 Di-acetylated insulin]
T1/2 ([3]; beagle, dog, in vivo, iv): 0.755 h
T1/2 ([3]; dog, in vivo, iv): about 0.76 HR
TMAX ([3]; dog, in vivo, iv): 4.8 min
central volume of distribution (Vc) ([3]; dog, in vivo, iv): about 115 mL/kg
overall glucose suppression versus Insulin ([3]; dogs, IV): overall glucose suppressions were similar in terms of maximum suppression and duration of action
T1/2 ([4]; dog, in vivo): about 15 HR
T1/2, range across dogs ([4]; dog, in vivo): 6.6 to 51 h
TMAX ([4]; dog, in vivo): about 2.5 HR
Tmax, range across dogs ([4]; dog, in vivo): 1 to 8 h
T1/2 [4, 10]: 15.045 h
calculated IH bioavailability [4, 10]: about 36%
duration of glucose suppression versus Insulin ([4]; dogs, IH): significantly increased
Effect/mg Dosed ([4]; dogs, IH): 179
Effect (Glucose Suppression AUEC) ([4]; dogs, IH): 358
Cmin (minimum blood glucose concentration) ([6]; 520 μg/animal (Table 7)): 58 ± 11 mg/dL
Tmin (time to Cmin) ([6]; 520 μg/animal (Table 7)): 7.1 ± 6.6 h
time up to which blood glucose is still suppressed (not back to baseline) ([6]; selected dose): at least 12 hrs
dose adequate to reduce blood glucose to the target (40-60 mg/dl) ([7]; insulin mass): 20 μg/rat
group mean Cmin (blood glucose nadir), definitive leg ([7]; 20 μg/rat (5K di-acetylated), 10 μg/rat (2K di-acetylated)): 54 mg/dL
% Collected as aerosol [8]: 98%^1
